Assay [1] deals with T1, human ROR1 (human, UniProt Q01973 30-937).
T1 construct: Endogenous ROR1 on primary B-CLL cells, RPMI8226, Rec-1, SK-OV-3 and PA-1 cells; also called tyrosine-protein kinase transmembrane receptor ROR1; neurotrophic tyrosine kinase, receptor-related 1
The assay is described as follows: flow cytometry on PA-1 cells. As to the method: (§1) a) The level of expression of ROR1 was measured on human ovarian cancer cell lines by flow cytometry including PA-1, COLO-704, ES-2, SK-OV-3, and OVCAR-5. Briefly, cells were harvested, washed, counted for viability, resuspended at 50,000 cells/well of a 96-well round bottom plate and incubated with Alexa488-labeled anti human ROR1 antibody for 30 min at 4° C. All ROR1 and isotype control antibodies were titrated and analyzed in final concentration range between 0.01-100 nM (0.0015-15 μg/mL). […] At the end of incubation time, cells were centrifuged (5 min at 350×g), washed twice with FACS buffer, resuspended in 100 ul FACS buffer and analyzed on a CantoII device running FACS Diva software. Expression of ROR1 was then quantified as the median fluorescence intensity (MFI) and graphs showing the MFI in function of ROR1 antibody concentrations were plotted. EC50 values were then measured using Prism software (GraphPad). […] The calculated EC50s for binding of ROR1 Mab1 and ROR1 Mab2 to SK-OV-3 are extrapolated values and may be over- or underestimated. […]
A general note: A flow cytometer gives signals particle by particle.

The target of assay [2] is T1, human ROR1. The experiment in a line: flow cytometry on SK-OV-3 cells (extrapolated value). As to the method: as §1
Assay [3] has as its target T1, human ROR1. The assay is described as follows: cell-based or functional assay.
The next assay deals with T2, human CD3ε (human, UniProt P07766 23-207).
T2 construct: whole, on cells; CD3 on human leukemic Jurkat T cells, as part of the TCR/CD3 complex; also called CD3 epsilon
The experiment in a line: flow cytometry on Jurkat T cells. How it is done:
Anti-ROR1/anti-CD3 T cell bispecific antibodies generated in Example 5 were analyzed by flow cytometry for their binding to human ovarian cancer cell lines PA-1 and SK-OV-3 and human CD3 expressed on human leukemic T cells Jurkat (ATCC TIB-152). Jurkat T cells were cultured in RPMI1640 medium supplemented with 10% fetal calf serum. Briefly, cultured cells were harvested, counted and cell viability is evaluated using ViCell. Viable cells were then adjusted to 2×10⁶ cells per ml in FACS Stain Buffer (BD Biosciences) containing 0.1% BSA. 100 μl of this cell suspension were further aliquoted per well into a round-bottom 96-well plate. […] After incubation for 30 min at 4° C., cells are centrifuged (5 min, 350×g), washed twice with 150 μl/well BSA-containing FACS Stain Buffer (BD Biosciences), then cells are fixed using 100 ul BD Fixation buffer per well (#BD Biosciences, 554655) at 4° C. for 20 min, resuspended in 120 μl FACS buffer and analyzed using BD FACS CantoII. Binding of the anti-ROR1/anti-CD3 T cell bispecific antibodies to human ovarian cancer cells and T cells were evaluated and the median fluorescence intensity was determined gated on either human ovarian cancer cells or CD3-expressing Jurkat T cells and plotted in histograms and dot plots. […] Median fluorescence intensity for anti-ROR1/anti-CD3 T cell bispecific antibodies in function of antibody concentrations were plotted.

Assay [4] deals with T1, human ROR1. The assay is described as follows: flow cytometry on RPMI8226 cells. How it is done: a) ROR1 expression was assessed on primary CD19⁺ CD5⁺ CLL cells by flow cytometry. Briefly, cells were harvested, washed, counted for viability, resuspended at 50 000 cells/well of a 96-well round bottom plate and incubated with Alexa488-labeled anti human ROR1 antibody at 10 μg/ml for 30 min at 4° C. (to prevent internalization). At the end of incubation time, cells were centrifuged (5 min at 350×g), washed twice with FACS buffer, resuspended in 100 ul FACS buffer and analyzed on a CantoII device running FACS Diva software.
b) ROR1 expression was then assessed on B lymphocyte myeloma RPMI8226 cell lines by flow cytometry, using the methods described above.

“And” between values parts separate entries of the source, which are not always exact repeats. Identical values can stand only once.

The values that follow come from US20170306018A1 (Bristol-Myers Squibb, published 2017).

T1 sequence (Q01973 30-937 limits assumed): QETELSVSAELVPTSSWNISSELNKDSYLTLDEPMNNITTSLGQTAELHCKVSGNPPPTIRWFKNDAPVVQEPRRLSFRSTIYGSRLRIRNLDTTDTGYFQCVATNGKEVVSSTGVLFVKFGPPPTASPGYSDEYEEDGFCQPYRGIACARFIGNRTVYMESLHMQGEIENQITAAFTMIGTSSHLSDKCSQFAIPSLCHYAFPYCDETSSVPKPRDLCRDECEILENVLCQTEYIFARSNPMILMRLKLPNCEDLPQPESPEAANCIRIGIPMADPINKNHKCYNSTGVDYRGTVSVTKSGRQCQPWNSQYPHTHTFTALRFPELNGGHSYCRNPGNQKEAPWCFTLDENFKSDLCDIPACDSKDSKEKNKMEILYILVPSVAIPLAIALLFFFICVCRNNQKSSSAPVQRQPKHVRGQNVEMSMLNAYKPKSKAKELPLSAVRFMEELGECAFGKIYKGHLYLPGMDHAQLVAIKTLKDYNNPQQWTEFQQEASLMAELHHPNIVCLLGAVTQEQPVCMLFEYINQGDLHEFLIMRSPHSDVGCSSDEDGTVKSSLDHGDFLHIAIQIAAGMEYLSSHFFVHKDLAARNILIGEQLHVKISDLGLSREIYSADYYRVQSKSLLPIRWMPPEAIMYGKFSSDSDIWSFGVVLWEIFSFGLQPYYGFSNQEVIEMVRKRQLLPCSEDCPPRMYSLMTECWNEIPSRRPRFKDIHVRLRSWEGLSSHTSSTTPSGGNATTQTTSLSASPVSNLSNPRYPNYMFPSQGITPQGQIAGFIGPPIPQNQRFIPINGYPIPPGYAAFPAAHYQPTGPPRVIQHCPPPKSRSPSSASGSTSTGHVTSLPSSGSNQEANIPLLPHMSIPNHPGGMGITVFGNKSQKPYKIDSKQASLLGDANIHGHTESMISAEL
T2 sequence (P07766 23-207): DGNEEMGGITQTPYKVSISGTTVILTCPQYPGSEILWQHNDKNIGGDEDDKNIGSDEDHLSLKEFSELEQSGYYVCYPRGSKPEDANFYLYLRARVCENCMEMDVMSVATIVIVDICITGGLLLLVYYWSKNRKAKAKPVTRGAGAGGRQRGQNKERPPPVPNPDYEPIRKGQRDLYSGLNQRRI

B1: ROR1 Mab2 IgG (antibody, V domains shown)
VH: EVKLVESGGGLVKPGGSLKLSCAASGFTFSSYAMSWVRQIPEKRLEWVASISRGGTTYYPDSVKGRFTISRDNVRNILYLQMSSLRSEDTAMYYCGRYDYDGYYAMDYWGQGTSVTVSS
VL: DIKMTQSPSSMYASLGERVTITCKASPDINSYLSWFQQKPGKSPKTLIYRANRLVDGVPSRFSGGGSGQDYSLTINSLEYEDMGIYYCLQYDEFPYTFGGGTKLEMK
notes: Tested as IgG; also called Mab 4A5
As for B1, the EC50 – broadly, the midpoint of the concentration-response curve – in the assay with human ROR1 [1] is 0.095 µg/mL and 0.64 nM; in the assay with human ROR1 [2] it was ~358 nM and ~53.4 µg/mL.

B2: ROR1 Mab2-TCBcv (bispecific antibody)
heavy 1: not shown
heavy 2: EVKLVESGGGLVKPGGSLKLSCAASGFTFSSYAMSWVRQIPEKRLEWVASISRGGTTYYPDSVKGRFTISRDNVRNILYLQMSSLRSEDTAMYYCGRYDYDGYYAMDYWGQGTSVTVSSASTKGPSVFPLAPSSKSTSGGTAALGCLVEDYFPEPVTVSWNSGALTSGVHTFPAVLQSSGLYSLSSVVTVPSSSLGTQTYICNVNHKPSNTKVDEKVEPKSCDKTHTCPPCPAPEAAGGPSVFLFPPKPKDTLMISRTPEVTCVVVDVSHEDPEVKFNWYVDGVEVHNAKTKPREEQYNSTYRVVSVLTVLHQDWLNGKEYKCKVSNKALGAPIEKTISKAKGQPREPQVCTLPPSRDELTKNQVSLSCAVKGFYPSDIAVEWESNGQPENNYKTTPPVLDSDGSFFLVSKLTVDKSRWQQGNVFSCSVMHEALHNHYTQKSLSLSPGK
light 1: DIKMTQSPSSMYASLGERVTITCKASPDINSYLSWFQQKPGKSPKTLIYRANRLVDGVPSRFSGGGSGQDYSLTINSLEYEDMGIYYCLQYDEFPYTFGGGTKLEMKRTVAAPSVFIFPPSDRKLKSGTASVVCLLNNFYPREAKVQWKVDNALQSGNSQESVTEQDSKDSTYSLSSTLTLSKADYEKHKVYACEVTHQGLSSPVTKSFNRGEC
light 2: EVQLLESGGGLVQPGGSLRLSCAASGFTFSTYAMNWVRQAPGKGLEWVSRIRSKYNNYATYYADSVKGRFTISRDDSKNTLYLQMNSLRAEDTAVYYCVRHGNFGNSYVSWFAYWGQGTLVTVSSASVAAPSVFIFPPSDEQLKSGTASVVCLLNNFYPREAKVQWKVDNALQSGNSQESVTEQDSKDSTYSLSSTLTLSKADYEKHKVYACEVTHQGLSSPVTKSFNRGEC
notes: 2+1 TCB with charge variants, bivalent for ROR1 (Mab2) and monovalent for CD3; The chain set is printed under the name Mab2 ROR1-TCB (2+1); also called Mab2 ROR1-TCBcv; Mab2 ROR1-TCB (2+1)
In the case of B2, in the assay with human ROR1 [3], the “Mean EC50 (ng/mL), cell lysis of COLO-704 (n = 1), LDH release” value stood at 14.3 ng/mL; the “Mean EC50 (ng/mL), cell lysis of OVCAR-5 (n = 1), LDH release” value stood at 10.7 ng/mL; the “Mean EC50 (ng/mL), cell lysis of PA-1 (n = 2), LDH release” value turned out to be 2.9 ng/mL; the “Mean EC50 (ng/mL), cell lysis of SKOV-3 (n = 5), LDH release” value stood at 141 ng/mL. For the same molecule, in the assay with human ROR1 [3], the “Mean EC50 (pM), cell lysis of COLO-704 (n = 1), LDH release” value amounted to 73.3 pM; the “Mean EC50 (pM), cell lysis of OVCAR-5 (n = 1), LDH release” value came to 53.4 pM; the “Mean EC50 (pM), cell lysis of PA-1 (n = 2), LDH release, PBMC E:T 10:1” value amounted to 14.6 pM; the “Mean EC50 (pM), cell lysis of SKOV-3 (n = 5), LDH release” value was 707 pM. In addition, the binding result in the assay with human CD3ε is reported as “binds”.

B3: anti-ROR1 IgG1 antibody (ROR1 Mab1) (antibody, V domains shown)
VH: QEQLVESGGRLVTPGGSLTLSCKASGFDFSAYYMSWVRQAPGKGLEWIATIYPSSGKTYYATWVNGRFTISSDNAQNTVDLQMNSLTAADRATYFCARDSYADDGALFNIWGPGTLVTISS
VL: ELVLTQSPSVSAALGSPAKITCTLSSAHKTDTIDWYQQLQGEAPRYLMQVQSDGSYTKRPGVPDRFSGSSSGADRYLIIPSVQADDEADYYCGADYIGGYVFGGGTQLTVTG
notes: Used Alexa488-labelled in some assays; also called anti-ROR1 antibody; anti-ROR1 IgG antibody
As to B3, in the assay with human CD3ε, the binding result is on record as “no binding (tested: 3 nM to 500 nM)”. For the same molecule, the EC50 was 0.87 nM and 0.13 µg/mL with human ROR1 [1]; 0.087 nM and 0.013 µg/mL with human ROR1 [4]; ~4.62 nM and ~0.69 µg/mL with human ROR1 [2].
